Source: IntAct's records for PubMed 22068056

B1: SWI/SNF-related matrix-associated actin-dependent regulator of chromatin subfamily D member 3 (Mus musculus), Q6P9Z1 (parent)
chain: MAADEVAGGARKATKSKLFEFLVHGVRPGMPSGARMPHQGAPMGPPGSPYMGSPAVRPGLAPAGMEPARKRAAPPPGQSQAQGQGQPVPTAPARSRSAKRRKMADKILPQRIRELVPESQAYMDLLAFERKLDQTIMRKRVDIQEALKRPMKQKRKLRLYISNTFNPAKPDAEDSDGSIASWELRVEGKLLDDPSKQKRKFSSFFKSLVIELDKDLYGPDNHLVEWHRTPTTQETDGFQVKRPGDLSVRCTLLLMLDYQPPQFKLDPRLARLLGLHTQSRSAIVQALWQYVKTNRLQDSHDKEYINGDKYFQQIFDCPRLKFSEIPQRLTALLLPPDPIVINHVISVDPSDQKKTACYDIDVEVEEPLKGQMSSFLLSTANQQEISALDSKIHETIESINQLKIQRDFMLSFSRDPKGYVQDLLRSQSRDLKVMTDVAGNPEEERRAEFYHQPWSQEAVSRYFYCKIQQRRQELEQSLVVRNT

Variants of: B1
Conditions: with smca4_mouse Smarca4, Q3TKT4
smca4_mouse Smarca4, Q3TKT4, sequence (Q3TKT4 whole entry): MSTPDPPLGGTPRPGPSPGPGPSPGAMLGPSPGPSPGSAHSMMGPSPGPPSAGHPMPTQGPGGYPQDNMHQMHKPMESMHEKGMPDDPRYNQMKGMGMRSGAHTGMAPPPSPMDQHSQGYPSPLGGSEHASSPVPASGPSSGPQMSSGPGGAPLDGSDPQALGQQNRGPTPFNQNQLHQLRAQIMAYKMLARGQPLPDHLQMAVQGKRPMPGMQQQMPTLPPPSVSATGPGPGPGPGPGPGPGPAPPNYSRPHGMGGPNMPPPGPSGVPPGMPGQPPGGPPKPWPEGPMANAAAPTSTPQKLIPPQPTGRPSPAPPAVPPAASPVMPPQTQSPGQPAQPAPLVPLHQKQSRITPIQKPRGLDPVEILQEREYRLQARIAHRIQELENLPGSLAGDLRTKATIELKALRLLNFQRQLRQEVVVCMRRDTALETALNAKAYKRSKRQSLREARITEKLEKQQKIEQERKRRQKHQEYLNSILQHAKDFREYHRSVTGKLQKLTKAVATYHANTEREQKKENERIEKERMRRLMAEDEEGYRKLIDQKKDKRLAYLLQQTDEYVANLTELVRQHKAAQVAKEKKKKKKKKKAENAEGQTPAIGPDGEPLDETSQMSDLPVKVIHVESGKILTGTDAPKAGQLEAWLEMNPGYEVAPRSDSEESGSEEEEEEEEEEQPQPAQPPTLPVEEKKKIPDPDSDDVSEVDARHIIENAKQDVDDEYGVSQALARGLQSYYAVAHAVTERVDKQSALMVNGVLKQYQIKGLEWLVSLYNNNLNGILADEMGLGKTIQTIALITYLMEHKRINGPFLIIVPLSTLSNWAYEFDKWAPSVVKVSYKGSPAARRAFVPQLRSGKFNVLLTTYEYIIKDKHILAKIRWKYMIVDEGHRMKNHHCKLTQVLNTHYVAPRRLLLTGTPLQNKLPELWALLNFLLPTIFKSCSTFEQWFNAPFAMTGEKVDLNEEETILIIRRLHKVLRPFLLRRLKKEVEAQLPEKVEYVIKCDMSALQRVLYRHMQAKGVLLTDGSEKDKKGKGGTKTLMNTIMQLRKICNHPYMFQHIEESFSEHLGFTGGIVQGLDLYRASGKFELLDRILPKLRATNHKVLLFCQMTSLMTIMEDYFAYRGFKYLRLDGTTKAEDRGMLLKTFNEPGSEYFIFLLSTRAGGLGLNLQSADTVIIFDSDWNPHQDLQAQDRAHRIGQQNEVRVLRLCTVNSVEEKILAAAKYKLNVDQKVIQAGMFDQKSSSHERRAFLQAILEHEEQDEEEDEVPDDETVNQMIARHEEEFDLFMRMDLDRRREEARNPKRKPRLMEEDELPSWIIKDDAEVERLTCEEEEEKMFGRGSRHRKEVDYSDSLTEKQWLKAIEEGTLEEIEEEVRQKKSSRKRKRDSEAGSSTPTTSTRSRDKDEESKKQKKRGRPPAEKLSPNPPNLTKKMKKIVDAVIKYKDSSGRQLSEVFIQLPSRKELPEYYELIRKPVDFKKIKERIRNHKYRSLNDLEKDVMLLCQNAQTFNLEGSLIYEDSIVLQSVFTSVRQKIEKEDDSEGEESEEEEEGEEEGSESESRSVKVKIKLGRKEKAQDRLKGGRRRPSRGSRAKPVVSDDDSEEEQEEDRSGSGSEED

Row | Variant | effect of a mutation on the interaction
1 | T229A | disrupting interaction
